Reference: patent US20250027068

Molecular target: pooled human IgG (human IgG1,2,3 and 4)

Protein	Enzyme Activity Endpoint Assay (purified): Fab′2 [ng/µL]	Enzyme Activity Endpoint Assay (purified): Fc [ng/µL]	Enzyme Activity Endpoint Assay (purified): scIgG [ng/µL]	Enzyme Activity Endpoint Assay: Fab′2 [ng/µL]	Enzyme Activity Endpoint Assay: Fc [ng/µL]	Enzyme Activity Endpoint Assay: IgG [ng/µL]	Enzyme Activity Endpoint Assay: scIgG [ng/µL]	Enzyme Activity Endpoint Assay (purified): IgG [ng/µL]
PRT-517 (protein) MITSVWTKGVTPPTDFIKGEDVFHAPYKAGQGWYDITKAFDGGDDLLCGAATAGNMLHWWFDQNKEEIEAYLKKHPEKQKIMFGDQELLDVRKVINTKDSQTNSALFNYFKDKAFPNLSARRLGVMPDLVLDMFINGYYLNVYKTQTTDVNRQEQTKDRRGGIFDAVFGRGDQTKLLTERHDLKNKTLKEISDLIKQELTEGKALGLSHTYANVRINHVINLWGADFDSNGNLEAIYVTDSDSNASIGMKKYFVGVNSAGKVAISAKEIKEDNIGAQVLGLFTLSTGQKIWNKTNLEHHHHHH	0	0	22	–	–	–	–	–
PRT-682 (protein) MQITSVWTKGVTPLTPEQFRNNNEDVIHAPYLANQGWYDITKTFNGKDNLLCGAATAGNMLHWWFDQNKTEIEAYLKKHPEKQKIIFNNQELFDLKKAIDTKDSQTNSQLFNYFRDKAFPNLSARQLGVMPDLVLDMFINGYYLNVFKTQSTDVNRPYQDKDKRGGIFDAVFTRGDQTTLLTSRHDLKNKGLNEISDIIKQELTEGKALALSHTYANVSISHVINLWGADFNAEGNLEAIYVTDSDANASIGMKKYFVGVNAHGKVAISAKKIEGENIGAQVLGLFTLSSGKDIWQKLSLEHHHHHH	–	–	–	0	0	0	0	–
PRT-503 (protein) MITSVWTKGVTPPTDFIKGEDVFHAPYKAGQGWYDITKAFDGGDDLLCGAATAGNMLHWWFDQNKEYIEAYLKKHPEKQKIMFGDQELLDVRKAINTKGSQKNSELFNYFRDKAFPNLSARRLGVMPDLVLDMFINGYYLNVTKTQTTDVNRQEQEKDKRGGIFDAVFGRGDQTKLLTSRHDLKNKGLNEISQLIKQELTEGKALGLSHTYANVRINHVINLWGADFDADGNLEAIYVTDSDSNASIGMKKYFVGVNSAGKVAISAKEIKEDNIGAQVLGLFTLSTGQKIWNKTNLEHHHHHH	–	–	–	0	0	0	0	–
PRT-496 (protein) MVTSVWTKGVTPPTDFIKGEDVFHAPYKAGQGWYDITKTFNGKDDLLCGAATAGNMLHWWFDQNKEYIEAYLKKHPEKQKIMFGDQELLDVRKAINTKGSQKNSELFNYFRDKAFPNLSARRLGVMPDLVLDMFINGYYLNVTKTQTTDVNRTYQEKDKRGGIFDAVFTRGDQSKLLTSRHDLKNKGLKEISDLIKQELTEGKALGLSHTYANVRINHVINLWGADFDSDGNLKAIYVTDSDSNASIGMKKYFVGVNSAGKVAISAKEIKEDNIGAQVLGLFTLSTGQDIWNQTNLEHHHHHH	–	–	–	190	192	0	0	–
PRT-501 (protein) MVTSVWTKGVTPPADFTQGEDVFHAPYVANQGWYDITKTFNGKDDLLCGAATAGNMLHWWFDQNKEYIEAYLKKHPEKQKIMFGDQELLDVRKAINTKGSQKNSELFNYFRDKAFPNLSARRLGVMPDLVLDMFINGYYLNVTKTQTTDVNRTYQEKDKRGGIFDAVFTRGDQSKLLTSRHDLKNKGLKEISDLIKQELTEGKALGLSHTYANVRINHVINLWGADFDSDGNLKAIYVTDSDSNASIGMKKYFVGVNSAGKVAISAKEIKEDNIGAQVLGLFTLSTGQDIWNQTNLEHHHHHH	0	0	0	–	–	–	–	1950
PRT-482 (protein) MVTSVWTKGVTPPTDFIKGEDVFHAPYKAGQGWYDITKTFNGKDNLLCGAATAGNMLHWWFDQNKDQIEAYLKEHPEKQKIIFNNQELFDLKAAIDTKDDQTNSKLFEYFKEKAFPYLSTKHLGVFPDHVLDMFINGYRLSLTNHGPTPVKEGSKDKRGGIFDAVFTRGVQSKLLTSRHDFKEKTLKEISDLIKQELTEGKALALSHTYANVRINHVINLWGADFDSNGNLEAIYVTDSDTNASIGMKKYFVGVNSAGKVAISAKEIEDDNIGAQVLGLFTLSTGQDIWNQTNLEHHHHHH	–	–	–	261	322	146	738	–
PRT-460 (protein) MVTSVWTKGVTPPTDFIKGEDVFHAPYKAGQGWYDITKTFNGKDDLLCGAATAGNMLHWWFDQNKDQIERYLKEHPEKQKINFNGEQMFDVKEAIDTKDSQTDSKLFEYFKEKAFPYLSTKHLGVFPDHVLDMFINGYRLSLTNHGPTPVKEGSKDPRGGIFDAVFTRGDQSKLLTSRHDLKNKTLKEISDLIKQELTEGKALGLSHTYANVRINHVINLWGADFDSEGNLKAIYVTDSDSNASIGMKKYFVGVNSAGKVAISAKEIKEDNIGAQVLGLFTLSTGQDIWNQTNLEHHHHHH	–	–	–	49	108	26	64	–
PRT-677 (protein) MQITSVWTKGVIPPTMDQFRYNNYDVFHAPYLPHQGWYDITKTFDGGDNLLCGAATAGNMLHWWFDQNKEYIENYLKKYPEKQKIIFNNQELFDLRKAINTKDSQTNSELFNYFRDKAFGNLSARQKGVMPDLVLDMFINGYYLNLFKTQSTDVNRPNDTRDKRGGFFDHVFGRGDQTKLLTARHDLYNGGLSDISQLIKQELQSGKALAISHTYGNVSSSHVINLWGADFDAEGNLEAIYVTDSDDRSSIGMKKYYVGINASGKVAISAKKIEGENVGAQVLGLFTLSSGKEIWKKLSLEHHHHHH	–	–	–	0	0	0	0	–
PRT-466 (protein) MITSVWTKGVTPPTDFIKGEDVFHAPYKAGQGWYDITKAFDGGDDLLCGAATAGNMLHWWFDQNKDQIERYLKEHPEKQKINFNGEQMFDVKEAIDTKDSQTNSELFNYFKEKAFPYLSTKHLGVFPDHVLDMFINGYRLSLTNHGPTPVKRQEKDPRGGIFDAVFGRGDQTKLLTSRHDFKEKTLNEISQLIKQELTEGKALGLSHTYANVRINHVINLWGADFDAEGNLEAIYVTDSDSNASIGMKKYFVGVNSAGKVAISAKEIKEDNIGAQVLGLFTLSTGQKIWNKTNLEHHHHHH	–	–	–	404	362	161	303	–
PRT-455 (protein) MITSVWTKGVTPPTDFIKGEDVFHAPYKAGQGWYDITKAFDGGDDLLCGAATAGNMLHWWFDQNKDQIEAYLKEHPEKQKINFNGEQMFDVKEAIDTKDDQTNSELFNYFKEKAFPYLSTKHLGVFPDHVLDMFINGYRLSLTNHGPTPVKRQEKDPRGGIFDAVFGRGDQTKLLTSRHDLKNKTLNEISQLIKQELTEGKALALSHTYANVRINHVINLWGADFDAEGNLEAIYVTDSDSNASIGMKKYFVGVNSAGKVAISAKEIEDDNIGAQVLGLFTLSTGQKIWNKTNLEHHHHHH	–	–	–	872	416	0	333	–
PRT-511 (protein) MITSVWTKGVTPPAKFRKIVDGNIAYYHAPYVANQGWYDITKTFNGKDDLLCGAATAGNMLHWWFDQNKEEIEAYLKKHPEKQKIMFGDQELLDVRKVINTKDSQTNSALFNYFKDKAFPNLSARRLGVMPDLVLDMFINGYYLNVYKTQTTDVNRTYQTKDRRGGIFDAVFTRGDQSKLLTERHDLKNKTLKEISDLIKQELTEGKALGLSHTYANVRINHVINLWGADFDSNGNLEAIYVTDSDSNASIGMKKYFVGVNSAGKVAISAKEIKEDNIGAQVLGLFTLSTGQDIWNQTNLEHHHHHH	935	312	0	–	–	–	–	62
PRT-513 (protein) MITSVWTKGVTPPAKFTQGEDVFHAPYVANQGWYDITKTFNGKDDLLCGAATAGNMLHWWFDQNKEEIEAYLKKHPEKQKIMFGDQELLDVRKVINTKDSQTNSALFNYFKDKAFPNLSARRLGVMPDLVLDMFINGYYLNVYKTQTTDVNRTYQTKDRRGGIFDAVFTRGDQSKLLTERHDLKNKTLKEISDLIKQELTEGKALGLSHTYANVRINHVINLWGADFDSNGNLEAIYVTDSDSNASIGMKKYFVGVNSAGKVAISAKEIKEDNIGAQVLGLFTLSTGQDIWNQTNLEHHHHHH	–	–	–	397	367	374	0	–
PRT-508 (protein) MITSVWTKGVTPPTDFIKGEDVFHAPYKAGQGWYDITKTFNGKDDLLCGAATAGNMLHWWFDQNKEEIEAYLKKHPEKQKIMFGDQELLDVRKVINTKDSQTNSALFNYFKDKAFPNLSARRLGVMPDLVLDMFINGYYLNVYKTQTTDVNRTYQTKDRRGGIFDAVFTRGDQSKLLTERHDLKNKTLKEISDLIKQELTEGKALGLSHTYANVRINHVINLWGADFDSNGNLEAIYVTDSDSNASIGMKKYFVGVNSAGKVAISAKEIKEDNIGAQVLGLFTLSTGQDIWNQTNLEHHHHHH	–	–	–	0	0	0	0	–
PRT-476 (protein) MVTSVWTKGVTPPTNFTYGEDVLHAPYVANQGWYDITKAFDGGDDLLCGAATAGNMLHWWFDQNKEQIENYLKKHPEKQKINFNGEQMFDVKEAIDTKDSQTNSELFNYFKEKAFPYLSTKHLGVFPDHVIDMFINGYRLSLTNHGPTPVKRGSKDPRGGIFDAVFTRGDQSKLLTNRHDLKNKTLKEISDLIKQELTEGKALGISHTYANVRINHVINLWGADFDAEGNLEAIYVTDSDSNASIGMKKYFVGVNSNGKVAISAKEIEEDNIGAQVLGLFTLSTGQDIWNQTNLEHHHHHH	–	–	–	0	0	2090	0	–
